Measured values from PMC10641528, “A conserved, noncanonical insert in FIS1 mediates TBC1D15 and DRP1 recruitment for mitochondrial fission” (The Journal of Biological Chemistry, 2023).

biological target: T1, DRP1, endogenous (dynamin family GTPase) (human (endogenous in HCT116), UniProt O00429 1-736); assay: co-IP; endogenous DRP1 immunoprecipitated (mouse monoclonal sc-271583 on protein A/G beads) from lysates of HCT116 cells transfected with pcDNA or pcDNA-FIS1 variants and cross-linked with 0.25% PFA; FIS1 blotted; scored as ratio of immunoprecipitated to input FIS1; lysis buffer 10 mM Tris/Cl pH 7.5, 150 mM NaCl, 0.5 mM EDTA, 0.5% NP-40 substitute; conditions: partners not purified
T1 construct: DRP1 endogenous in HCT116 cells; Immunoprecipitated with mouse monoclonal DRP1 antibody sc-271583; source: endogenous, HCT116 lysate (PFA cross-linked cells)
T1 sequence (O00429 whole entry): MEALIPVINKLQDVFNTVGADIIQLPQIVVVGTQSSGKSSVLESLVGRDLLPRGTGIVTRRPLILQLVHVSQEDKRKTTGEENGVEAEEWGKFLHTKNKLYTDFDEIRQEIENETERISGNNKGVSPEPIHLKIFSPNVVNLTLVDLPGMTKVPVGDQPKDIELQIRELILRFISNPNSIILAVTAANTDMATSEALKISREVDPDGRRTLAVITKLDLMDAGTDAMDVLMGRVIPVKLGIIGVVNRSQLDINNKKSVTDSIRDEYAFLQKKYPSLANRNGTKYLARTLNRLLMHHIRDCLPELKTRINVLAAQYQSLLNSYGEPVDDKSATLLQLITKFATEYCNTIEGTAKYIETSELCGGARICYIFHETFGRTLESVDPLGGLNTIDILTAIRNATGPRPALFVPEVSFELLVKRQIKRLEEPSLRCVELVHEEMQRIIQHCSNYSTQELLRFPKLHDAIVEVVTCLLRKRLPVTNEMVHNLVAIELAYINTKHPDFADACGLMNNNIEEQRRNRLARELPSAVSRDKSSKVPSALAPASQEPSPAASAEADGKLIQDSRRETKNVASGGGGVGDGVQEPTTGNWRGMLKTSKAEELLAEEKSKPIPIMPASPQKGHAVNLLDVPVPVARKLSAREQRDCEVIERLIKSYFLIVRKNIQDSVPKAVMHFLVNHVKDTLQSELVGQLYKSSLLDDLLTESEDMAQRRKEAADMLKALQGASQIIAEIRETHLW

Molecule	ratio of immunoprecipitated to input FIS1
FIS1 ΔSKY variant (SKY insert deleted) (natural protein, human, human FIS1 with S45, K46, Y47 deleted, expressed from pcDNA; source: HCT116, transfected, in lysate (PFA cross-linked cells)) MEAVLNELVSVEDLLKFEKKFQSEKAAGSVSKSTQFEYAWCLVRNDDIRKGIVLLEELLPKGSKEEQRDYVFYLAVGNYRLKEYEKALKYVRGLLQTEPQNNQAKELERLIDKAMKKDGLVGMAIVGGMALGVAGLAGLIGL	1.3 ± 0.9
Mitochondrial fission protein 1 (FIS1), wildtype, ectopically expressed from pcDNA-FIS1 WT (natural protein, human, human mitochondrial fission protein 1 (FIS1), wildtype, expressed from pcDNA; No tag is mentioned; detected with an anti-FIS1 antibody; also called WT FIS1; source: HCT116, transfected, in lysate (PFA cross-linked cells)) MEAVLNELVSVEDLLKFEKKFQSEKAAGSVSKSTQFEYAWCLVRSKYNDDIRKGIVLLEELLPKGSKEEQRDYVFYLAVGNYRLKEYEKALKYVRGLLQTEPQNNQAKELERLIDKAMKKDGLVGMAIVGGMALGVAGLAGLIGL	0.7 ± 0.1

Further lines, results first:

ratio of immunoprecipitated to input FIS1	Molecule
0.9 ± 0.2	FIS1 ΔSKYD49G variant (SKY insert deleted, D49 replaced by Gly) (natural protein, human, human FIS1 with S45, K46, Y47 deleted and D49 replaced by Gly (wildtype numbering), expressed from pcDNA; source: HCT116, transfected, in lysate (PFA cross-linked cells)) MEAVLNELVSVEDLLKFEKKFQSEKAAGSVSKSTQFEYAWCLVRNGDIRKGIVLLEELLPKGSKEEQRDYVFYLAVGNYRLKEYEKALKYVRGLLQTEPQNNQAKELERLIDKAMKKDGLVGMAIVGGMALGVAGLAGLIGL
0.7 ± 0.3	FIS1 D49G variant (natural protein, human, human FIS1 that keeps the SKY insert, with D49 replaced by Gly, expressed from pcDNA; source: HCT116, transfected, in lysate (PFA cross-linked cells)) MEAVLNELVSVEDLLKFEKKFQSEKAAGSVSKSTQFEYAWCLVRSKYNGDIRKGIVLLEELLPKGSKEEQRDYVFYLAVGNYRLKEYEKALKYVRGLLQTEPQNNQAKELERLIDKAMKKDGLVGMAIVGGMALGVAGLAGLIGL
0.9 ± 0.1	FIS1 AAA variant (SKY insert substituted with three alanines) (natural protein, human, human FIS1 with S45, K46, Y47 replaced by three Ala, expressed from pcDNA; also called AAA FIS1 variant; source: HCT116, transfected, in lysate (PFA cross-linked cells)) MEAVLNELVSVEDLLKFEKKFQSEKAAGSVSKSTQFEYAWCLVRAAANDDIRKGIVLLEELLPKGSKEEQRDYVFYLAVGNYRLKEYEKALKYVRGLLQTEPQNNQAKELERLIDKAMKKDGLVGMAIVGGMALGVAGLAGLIGL

biological target: DRP1, endogenous (dynamin family GTPase) (human (endogenous in HCT116)) (UniProt O00429); assay: as above; conditions: not given
Sequence (O00429 whole entry): as the sequence (O00429 whole entry) above

ratio of immunoprecipitated to input FIS1	Molecule
3.9	FIS1 5LA variant (five conserved TPR Leu residues replaced with Ala) (from UniProt Q9Y3D6 1-145) (natural protein)
